Measurements taken from article PMC314469, “Protein Interaction Networks by Proteome Peptide Scanning” (PLoS Biology, 2004).

T1: Boi1 SH3 (BOI1_YEAST), P38041
T1 chain: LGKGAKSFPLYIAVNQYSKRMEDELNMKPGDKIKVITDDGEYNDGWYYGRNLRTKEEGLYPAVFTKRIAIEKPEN

T2: Yfr024 SH3 (LSB3_YEAST), P43603
T2 chain: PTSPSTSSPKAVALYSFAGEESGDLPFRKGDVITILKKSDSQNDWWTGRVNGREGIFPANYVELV

T3: Yhr016c SH3 (YSC84_YEAST), P32793
T3 chain: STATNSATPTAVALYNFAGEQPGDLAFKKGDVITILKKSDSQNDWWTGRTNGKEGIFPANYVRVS

T4: Rvs167 SH3 (RV167_YEAST), P39743
T4 chain: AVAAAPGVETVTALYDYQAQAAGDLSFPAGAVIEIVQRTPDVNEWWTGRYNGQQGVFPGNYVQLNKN

T5: Boi2 SH3 (BOI2_YEAST), P39969
T5 chain: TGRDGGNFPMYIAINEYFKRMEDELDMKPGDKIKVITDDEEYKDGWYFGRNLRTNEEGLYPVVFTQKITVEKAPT

B1: YGR264C 141-154 (peptide)
chain: SKFPELPSKVHNAV
B2: YDR206W 310-323 (peptide)
chain: SKGPRTPAKEILEF
B3: YHL027W 505-518 (peptide)
chain: SKIPMLPSRRTMAG
B4: YJL056C 343-356 (peptide)
chain: SKPPQLPPKSSSLR
B5: YML013W 181-194 (peptide)
chain: SKVPKAPTRETHIP
B6: YDR332W 665-678 (peptide)
chain: SLAPVYPLKSLLRI
B7: YIR032C 171-184 (peptide)
chain: SLDPDRPEKDSVEE
B8: YBR007C 353-366 (peptide)
chain: SLPPTPPYKAHKKK
B9: YMR145C 263-276 (peptide)
chain: SLSPKDPERARLLS
B10: YIL112W 773-786 (peptide)
chain: SMEPHSPKKAKSVE
B11: YLR162W 51-64 (peptide)
chain: SMSPLPPARANKSD
B12: YNL233W 804-817 (peptide)
chain: SMTPDSPVKSDLTS
B13: YDL029W 307-320 (peptide)
chain: SMYPGLPSRLEKEL
B14: YGR097W 457-470 (peptide)
chain: SNDPIPPPRKVSDV
B15: YER087W 333-346 (peptide)
chain: SNFPDFPLKKYLKN
B16: YIL130W 110-123 (peptide)
chain: SNNPSKPRKYKTKS
B17: YDR216W 473-486 (peptide)
chain: SNSPISPHKLIYKN

Experiments:
Assay in all cases: SPOT array
[1] = target: T1, Boi1 SH3 (BOI1_YEAST), P38041
[2] = target: T2, Yfr024 SH3 (LSB3_YEAST), P43603
[3] = target: T3, Yhr016c SH3 (YSC84_YEAST), P32793
[4] = target: T4, Rvs167 SH3 (RV167_YEAST), P39743
[5] = target: T5, Boi2 SH3 (BOI2_YEAST), P39969

| Binder | normalised SPOT signal, Boehringer light units (BLU); mean over the file's lines of this peptide [1] | normalised SPOT signal, Boehringer light units (BLU); mean over the file's lines of this peptide [2] | normalised SPOT signal, Boehringer light units (BLU); mean over the file's lines of this peptide [3] | normalised SPOT signal, Boehringer light units (BLU); mean over the file's lines of this peptide [4] | normalised SPOT signal, Boehringer light units (BLU); mean over the file's lines of this peptide [5] |
| --- | --- | --- | --- | --- | --- |
| B1 | 105 | 1170 | 132 | 20.5 | 32.6 |
| B2 | 176 | 380 | 0 | 53.9 | 44.4 |
| B3 | 2650 | 45200 | 103000 | 58400 | 4640 |
| B4 | 74.2 | 45000 | 2910 | 140 | 6.6 |
| B5 | 23.4 | 1300 | 218 | 47.3 | 36.6 |
| B6 | 7610 | 782 | 173 | 45.5 | 54.3 |
| B7 | 83.1 | 126 | 93.6 | 20.5 | 46.2 |
| B8 | 114 | 758 | 108 | 29.4 | 22.9 |
| B9 | 79 | 97.9 | 158 | 80.3 | 38.1 |
| B10 | 58.3 | 1230 | 133 | 85.5 | 72.7 |
| B11 | 120 | 16600 | 17100 | 2610 | 460 |
| B12 | 85.9 | 407 | 533 | 31.9 | 38.5 |
| B13 | 77.3 | 6190 | 3680 | 815 | 119 |
| B14 | 76.6 | 8060 | 2640 | 161 | 13.3 |
| B15 | 59.5 | 382 | 201 | 17.9 | 15.4 |
| B16 | 74.1 | 307 | 61.8 | 42.6 | 35.7 |
| B17 | 71.5 | 0 | 143 | 51.3 | 0 |
